# Laboratory results published in patent US12662524B2.
# Where “and” joins values, the source holds several entries; their conditions need not be identical. Equal values may be shown once.
# Tests used:
# [1] = target: AP C3-convertase (C3bBb) (Homo sapiens (Human)) (UniProt P01024)
# [2] = substrate: CP C3-convertase (C4b2a) (Homo sapiens (Human)) (UniProt P0C0L4)
# [3] = target: C4b (Homo sapiens (Human)) (UniProt P0C0L4)
# [4] = target: C3b (Homo sapiens (Human)) (UniProt P01024)
# Sequence of C4b (Homo sapiens (Human)) (P0C0L4 757-1446 limits assumed, chain 1 of 2): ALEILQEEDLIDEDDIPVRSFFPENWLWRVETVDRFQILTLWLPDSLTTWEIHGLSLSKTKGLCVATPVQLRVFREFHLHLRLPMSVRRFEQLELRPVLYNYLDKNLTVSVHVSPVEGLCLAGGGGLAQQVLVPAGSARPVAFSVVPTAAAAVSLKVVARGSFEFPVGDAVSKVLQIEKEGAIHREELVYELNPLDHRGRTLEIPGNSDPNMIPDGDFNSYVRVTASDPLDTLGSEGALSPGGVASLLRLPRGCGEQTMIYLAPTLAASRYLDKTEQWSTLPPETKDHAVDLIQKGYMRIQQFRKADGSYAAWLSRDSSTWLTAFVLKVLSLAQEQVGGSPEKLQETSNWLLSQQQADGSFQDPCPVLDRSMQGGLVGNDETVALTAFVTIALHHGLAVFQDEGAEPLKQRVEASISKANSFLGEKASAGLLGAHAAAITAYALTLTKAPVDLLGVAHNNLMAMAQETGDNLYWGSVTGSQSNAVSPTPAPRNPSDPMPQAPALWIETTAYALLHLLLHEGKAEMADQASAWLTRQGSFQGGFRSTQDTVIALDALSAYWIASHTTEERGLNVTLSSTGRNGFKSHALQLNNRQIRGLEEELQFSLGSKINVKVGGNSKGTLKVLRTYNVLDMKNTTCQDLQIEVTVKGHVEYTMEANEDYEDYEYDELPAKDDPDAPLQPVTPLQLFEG
# Sequence of C4b (Homo sapiens (Human)) (P0C0L4 20-675 limits assumed, chain 2 of 2): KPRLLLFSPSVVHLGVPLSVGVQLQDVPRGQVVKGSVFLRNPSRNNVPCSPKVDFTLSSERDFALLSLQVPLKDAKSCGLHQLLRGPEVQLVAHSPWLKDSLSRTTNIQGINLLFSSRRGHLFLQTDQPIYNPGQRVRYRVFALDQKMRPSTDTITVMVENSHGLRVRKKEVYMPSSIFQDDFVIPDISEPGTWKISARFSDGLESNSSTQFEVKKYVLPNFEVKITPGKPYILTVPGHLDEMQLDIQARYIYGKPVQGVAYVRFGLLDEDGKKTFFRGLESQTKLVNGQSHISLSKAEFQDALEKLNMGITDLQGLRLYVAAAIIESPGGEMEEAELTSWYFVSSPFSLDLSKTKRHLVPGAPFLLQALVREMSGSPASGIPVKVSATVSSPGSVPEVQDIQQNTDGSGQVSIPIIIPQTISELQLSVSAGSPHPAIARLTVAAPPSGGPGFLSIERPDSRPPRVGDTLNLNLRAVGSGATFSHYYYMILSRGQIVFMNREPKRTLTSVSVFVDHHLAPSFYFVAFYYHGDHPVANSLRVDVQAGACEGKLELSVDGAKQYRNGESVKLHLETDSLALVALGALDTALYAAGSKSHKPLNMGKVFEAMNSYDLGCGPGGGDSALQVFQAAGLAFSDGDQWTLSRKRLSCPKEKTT
AP-DAA IC50 [1],CP-DAA IC50 [2],C4b CFA: time (min.) for 50% cleavage of C4b α-chain [3],C3b CFA: time (min.) for 50% cleavage of C3b α′-chain [4],Binder
> 10 nM,10.9 nM,–,–,D2D3 (protein) CEVPTRLNSASLKQPYITQNYFPVGTVVEYECRPGYRREPSLSPKLTCLQNLKWSTAVEFCKKKSCPNPGEIRNGQIDVPGGILFGATISFSCNTGYKLFGSTSSFCLISGSSVQWSDPLPECREIY
> 10 nM,39.3 nM,5.5 min,17.5 min,D2D3M3M4 (Multi-4) (protein) CEVPTRLNSASLKQPYITQNYFPVGTVVEYECRPGYRREPSLSPKLTCLQNLKWSTAVEFCKKKSCPNPGEIRNGQIDVPGGILFGATISFSCNTGYKLIGKTSSFCLISGSSVQWSDKLPICEKVLCTPPPKIKNGKHTFSEVEVFEYLDAVTYSCDPAPGPDPFSLIGESTIYCGDNSVWSRAAPECKVVKCRFPVVENGKQISGFGKKFYYKATVMFECDKGFYLDGSDTIVCDSNSTWDPPVPKCLKVL
> 10 nM,> 100 nM,> 540 min,–,D2D3M3M4 (K195Y) (protein) CEVPTRLNSASLKQPYITQNYFPVGTVVEYECRPGYRREPSLSPKLTCLQNLKWSTAVEFCKKKSCPNPGEIRNGQIDVPGGILFGATISFSCNTGYYLFGSTSSFCLISGSSVQWSDPLPECREIYCTPPPKIKNGKHTFSEVEVFEYLDAVTYSCDPAPGPDPFSLIGESTIYCGDNSVWSRAAPECKVVKCRFPVVENGKQISGFGKKFYYKATVMFECDKGFYLDGSDTIVCDSNSTWDPPVPKCLKVL
1.9 nM,22.6 nM,443 min,27.3 min,D2D3M3M4 (Multi-1) (protein) CEVPTRLNSASLKQPYITQNYFPVGTVVEYECRPGYRREPSLSPKLTCLQNLKWSTAVEFCKKKSCPNPGEIRNGQIDVPGGILFGATISFSCNTGYKLFGSTSSFCLISGSSVQWSDPLPICEKVLCTPPPKIKNGKHTFSEVEVFEYLDAVTYSCDPAPGPDPFSLIGESTIYCGDNSVWSRAAPECKVVKCRFPVVENGKQISGFGKKFYYKATVMFECDKGFYLDGSDTIVCDSNSTWDPPVPKCLKVL
3.4 nM,21 nM,93 min,30.1 min,D2D3M3M4 (P216K) (protein) CEVPTRLNSASLKQPYITQNYFPVGTVVEYECRPGYRREPSLSPKLTCLQNLKWSTAVEFCKKKSCPNPGEIRNGQIDVPGGILFGATISFSCNTGYKLFGSTSSFCLISGSSVQWSDKLPECREIYCTPPPKIKNGKHTFSEVEVFEYLDAVTYSCDPAPGPDPFSLIGESTIYCGDNSVWSRAAPECKVVKCRFPVVENGKQISGFGKKFYYKATVMFECDKGFYLDGSDTIVCDSNSTWDPPVPKCLKVL
6.6 nM,21.7 nM,181 min,18.9 min,D2D3M3M4 (S199K) (protein) CEVPTRLNSASLKQPYITQNYFPVGTVVEYECRPGYRREPSLSPKLTCLQNLKWSTAVEFCKKKSCPNPGEIRNGQIDVPGGILFGATISFSCNTGYKLFGKTSSFCLISGSSVQWSDPLPECREIYCTPPPKIKNGKHTFSEVEVFEYLDAVTYSCDPAPGPDPFSLIGESTIYCGDNSVWSRAAPECKVVKCRFPVVENGKQISGFGKKFYYKATVMFECDKGFYLDGSDTIVCDSNSTWDPPVPKCLKVL
3.7 nM,17.7 nM,513 min,103 min,D2D3M3M4 (T200Y) (protein) CEVPTRLNSASLKQPYITQNYFPVGTVVEYECRPGYRREPSLSPKLTCLQNLKWSTAVEFCKKKSCPNPGEIRNGQIDVPGGILFGATISFSCNTGYKLFGSYSSFCLISGSSVQWSDPLPECREIYCTPPPKIKNGKHTFSEVEVFEYLDAVTYSCDPAPGPDPFSLIGESTIYCGDNSVWSRAAPECKVVKCRFPVVENGKQISGFGKKFYYKATVMFECDKGFYLDGSDTIVCDSNSTWDPPVPKCLKVL
2.4 nM and 2.1 nM,5.1 nM and 15.9 nM,429 min and 465 min,80.7 min and 82.6 min,D2D3M3M4 (protein) CEVPTRLNSASLKQPYITQNYFPVGTVVEYECRPGYRREPSLSPKLTCLQNLKWSTAVEFCKKKSCPNPGEIRNGQIDVPGGILFGATISFSCNTGYKLFGSTSSFCLISGSSVQWSDPLPECREIYCTPPPKIKNGKHTFSEVEVFEYLDAVTYSCDPAPGPDPFSLIGESTIYCGDNSVWSRAAPECKVVKCRFPVVENGKQISGFGKKFYYKATVMFECDKGFYLDGSDTIVCDSNSTWDPPVPKCLKVL
> 10 nM,9.2 nM,433 min,104 min,D2D3M3M4 (L205K) (protein) CEVPTRLNSASLKQPYITQNYFPVGTVVEYECRPGYRREPSLSPKLTCLQNLKWSTAVEFCKKKSCPNPGEIRNGQIDVPGGILFGATISFSCNTGYKLFGSTSSFCKISGSSVQWSDPLPECREIYCTPPPKIKNGKHTFSEVEVFEYLDAVTYSCDPAPGPDPFSLIGESTIYCGDNSVWSRAAPECKVVKCRFPVVENGKQISGFGKKFYYKATVMFECDKGFYLDGSDTIVCDSNSTWDPPVPKCLKVL
2.3 nM,15.3 nM,268 min,74.3 min,D2D3M3M4 (T192E) (protein) CEVPTRLNSASLKQPYITQNYFPVGTVVEYECRPGYRREPSLSPKLTCLQNLKWSTAVEFCKKKSCPNPGEIRNGQIDVPGGILFGATISFSCNEGYKLFGSTSSFCLISGSSVQWSDPLPECREIYCTPPPKIKNGKHTFSEVEVFEYLDAVTYSCDPAPGPDPFSLIGESTIYCGDNSVWSRAAPECKVVKCRFPVVENGKQISGFGKKFYYKATVMFECDKGFYLDGSDTIVCDSNSTWDPPVPKCLKVL
4.4 nM,30.7 nM,66.7 min,49.8 min,D2D3M3M4 (F197I) (protein) CEVPTRLNSASLKQPYITQNYFPVGTVVEYECRPGYRREPSLSPKLTCLQNLKWSTAVEFCKKKSCPNPGEIRNGQIDVPGGILFGATISFSCNTGYKLIGSTSSFCLISGSSVQWSDPLPECREIYCTPPPKIKNGKHTFSEVEVFEYLDAVTYSCDPAPGPDPFSLIGESTIYCGDNSVWSRAAPECKVVKCRFPVVENGKQISGFGKKFYYKATVMFECDKGFYLDGSDTIVCDSNSTWDPPVPKCLKVL
2.4 nM,12.7 nM,3.1 min,3.3 min,D2D3M3M4 (Multi-5) or DCP (protein) CEVPTRLNSASLKQPYITQNYFPVGTVVEYECRPGYRREPSLSPKLTCLQNLKWSTAVEFCKKKSCPNPGEIRNGQIDVPGGILFGATISFSCNTGYKLIGSTSSFCLISGSSVQWSDKLPICEKVLCTPPPKIKNGKHTFSEVEVFEYLDAVTYSCDPAPGPDPFSLIGESTIYCGDNSVWSRAAPECKVVKCRFPVVENGKQISGFGKKFYYKATVMFECDKGFYLDGSDTIVCDSNSTWDPPVPKCLKVL
1.1 nM and 2.3 nM,16.5 nM and 14.5 nM and 2.6 nM,–,–,decay-accelerating factor (DAF; CD55) (protein) CGLPPDVPNAQPALEGRTSFPEDTVITYKCEESFVKIPGEKDSVICLKGSQWSDIEEFCNRSCEVPTRLNSASLKQPYITQNYFPVGTVVEYECRPGYRREPSLSPKLTCLQNLKWSTAVEFCKKKSCPNPGEIRNGQIDVPGGILFGATISFSCNTGYKLFGSTSSFCLISGSSVQWSDPLPECREIYCPAPPQIDNGIIQGERDHYGYRQSVTYACNKGFTMIGEHSIYCTVNNDEGEWSGPPPECRGKS
> 10 nM,457 nM,–,–,D2M2-4 (protein) CEVPTRLNSASLKQPYITQNYFPVGTVVEYECRPGYRREPSLSPKLTCLQNLKWSTAVEFCKKKSCPYIRDPLNGQAVPANGTYEFGYQMHFICNEGYYLIGEEILYCELKGSVAIWSGKPPICEKVLCTPPPKIKNGKHTFSEVEVFEYLDAVTYSCDPAPGPDPFSLIGESTIYCGDNSVWSRAAPECKVVKCRFPVVENGKQISGFGKKFYYKATVMFECDKGFYLDGSDTIVCDSNSTWDPPVPKCLKVL
> 10 nM,> 1000 nM,–,–,D2M2-4 (ML) (protein) CEVPTRLNSASLKQPYITQNYFPVGTVVEYECRPGYRREPSLSPKLTCLQNLKWSTAVEFCYRETCPYIRDPLNGQAVPANGTYEFGYQMHFICNEGYYLIGEEILYCELKGSVAIWSGKPPICEKVLCTPPPKIKNGKHTFSEVEVFEYLDAVTYSCDPAPGPDPFSLIGESTIYCGDNSVWSRAAPECKVVKCRFPVVENGKQISGFGKKFYYKATVMFECDKGFYLDGSDTIVCDSNSTWDPPVPKCLKVL
5.6 nM,5.7 nM,–,–,D2D3D4M4 (protein) CEVPTRLNSASLKQPYITQNYFPVGTVVEYECRPGYRREPSLSPKLTCLQNLKWSTAVEFCKKKSCPNPGEIRNGQIDVPGGILFGATISFSCNTGYKLFGSTSSFCLISGSSVQWSDPLPECREIYCPAPPQIDNGIIQGERDHYGYRQSVTYACNKGFTMIGEHSIYCTVNNDEGEWSGPPPECRGKSCRFPVVENGKQISGFGKKFYYKATVMFECDKGFYLDGSDTIVCDSNSTWDPPVPKCLKVL
–,–,16.5 min and 12 min and 9.3 min,3.5 min and 2.1 min and 4.5 min,membrane cofactor protein (MCP; CD46) (protein) CEEPPTFEAMELIGKPKPYYEIGERVDYKCKKGYFYIPPLATHTICDRNHTWLPVSDDACYRETCPYIRDPLNGQAVPANGTYEFGYQMHFICNEGYYLIGEEILYCELKGSVAIWSGKPPICEKVLCTPPPKIKNGKHTFSEVEVFEYLDAVTYSCDPAPGPDPFSLIGESTIYCGDNSVWSRAAPECKVVKCRFPVVENGKQISGFGKKFYYKATVMFECDKGFYLDGSDTIVCDSNSTWDPPVPKCLKVL
